# Measurements from patent publication US20250043302A1, “MUTATED HYDROXYPHENYLPYRUVATE DIOXYGENASE POLYPEPTIDE, AND CODING GENE AND USE THEREOF” (BEIJING DABEINONG BIOTECHNOLOGY CO., LTD., priority 2021, published 2025).
# Experiments:
# Assay type in all cases: in vivo
# [1] = system: Arabidopsis thaliana T1 plants; experiment: Isoxaflutole tolerance of transgenic Arabidopsis thaliana T1 plants (spray, bleached leaf area grade, damage score); parameters: Scores (pesticide damage): scale not given here; conditions: spray, Arabidopsis thaliana T1 plants; for Classification and statistics of the grade of pesticide damage: Grade 0 (number of plants) / Classification and statistics of the grade of pesticide damage: Grade 1 (number of plants) / Classification and statistics of the grade of pesticide damage: Grade 2 (number of plants) / Classification and statistics of the grade of pesticide damage: Grade 3 (number of plants): 16 plants
# Outline: (§1)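 T1 transformants selected by glufosinate; 18-day-old plants, with empty-vector and wild-type controls, sprayed with topramezone (25–200 g ai/ha), isoxaflutole (35–280 g ai/ha) or mesotrione (52.5–420 g ai/ha), water as 0×. Bleached leaf area fraction scored at 7 DAT as grades 0–3.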
# [2] = system: Arabidopsis thaliana T1 plants; experiment: Topramezone tolerance of transgenic Arabidopsis thaliana T1 plants (spray, bleached leaf area grade, damage score); conditions: 7 DAT, Table 4; for Classification and statistics of the grade of pesticide damage: Grade 0 / Classification and statistics of the grade of pesticide damage: Grade 1 / Classification and statistics of the grade of pesticide damage: Grade 2 / Classification and statistics of the grade of pesticide damage: Grade 3: number of plants; for Scores: pesticide damage score 0-100
# Outline: as §1
# [3] = system: Arabidopsis thaliana T1 plants; experiment: Mesotrione tolerance of transgenic Arabidopsis thaliana T1 plants (spray, bleached leaf area grade, damage score); parameters: Scores: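 damage score 0-100 computed as Σ(N×S)/(T×M)×100 over grades 0-3 with higher meaning more damage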; conditions: Arabidopsis thaliana T1 plants; for Grade 0 (classification and statistics of the grade of pesticide damage; number of plants) / Grade 1 (classification and statistics of the grade of pesticide damage; number of plants) / Grade 2 (classification and statistics of the grade of pesticide damage; number of plants) / Grade 3 (classification and statistics of the grade of pesticide damage; number of plants): 16 plants
# Outline: as §1
# [4] = isoxaflutole 35 g ai/ha (0.5x field concentration)
# [5] = isoxaflutole 70 g ai/ha (1x field concentration)
Molecule,"Resistance evaluation [1, 4]","Scores (pesticide damage) [1, 4]","Classification and statistics of the grade of pesticide damage: Grade 0 (number of plants) [1, 4]","Classification and statistics of the grade of pesticide damage: Grade 1 (number of plants) [1, 4]","Classification and statistics of the grade of pesticide damage: Grade 2 (number of plants) [1, 4]","Classification and statistics of the grade of pesticide damage: Grade 3 (number of plants) [1, 4]","Resistance evaluation [1, 5]","Scores (pesticide damage) [1, 5]","Classification and statistics of the grade of pesticide damage: Grade 0 (number of plants) [1, 5]","Classification and statistics of the grade of pesticide damage: Grade 1 (number of plants) [1, 5]","Classification and statistics of the grade of pesticide damage: Grade 2 (number of plants) [1, 5]","Classification and statistics of the grade of pesticide damage: Grade 3 (number of plants) [1, 5]",Classification and statistics of the grade of pesticide damage: Grade 0 ([2]; topramezone 25 g ai/ha (1×)),Classification and statistics of the grade of pesticide damage: Grade 1 ([2]; topramezone 25 g ai/ha (1×)),Classification and statistics of the grade of pesticide damage: Grade 2 ([2]; topramezone 25 g ai/ha (1×)),Classification and statistics of the grade of pesticide damage: Grade 3 ([2]; topramezone 25 g ai/ha (1×)),Classification and statistics of the grade of pesticide damage: Grade 0 ([2]; topramezone 100 g ai/ha (4×)),Classification and statistics of the grade of pesticide damage: Grade 1 ([2]; topramezone 100 g ai/ha (4×)),Classification and statistics of the grade of pesticide damage: Grade 2 ([2]; topramezone 100 g ai/ha (4×)),Classification and statistics of the grade of pesticide damage: Grade 3 ([2]; topramezone 100 g ai/ha (4×)),also measured
"BnHPPD-02: nucleotide sequence encoding wild-type Brassica napus HPPD; vector DBN11742 (nucleic acid, BnHPPD-02 Nucleotide Sequence, vector DBN11742) DNA: ATGGGACATGAAAACGCGGCAGTGTGTGAAACTCAACAACATGATGACGCCGCCTCCCCGGGGTTTAAACTTGTCGGGTTCTCAAAATTTGTTAGGAAGAATCCAAAGTCTGACAAGTTCAAGGTGAAACGCTTCCACCACATCGAGTTCTGGTGCGGGGATGCAACAAATGTTTCACGCCGCTTTTCATGGGGACTAGGAATGAGGTTTAGCGCAAAGAGTGATCTCTCCACTGGTAATATGGTTCATGCGAGCTACTTGCTCACATCTGGAGACCTGAGATTCCTCTTCACCGCACCATATTCTCCCTCCCTGTCAGCTGGTGAAGCTCAGCCTTCAGCAACTGCAAGTATCCCTTCGTTTGATCATGCATCGTGCAGGTCTTTCTTCAGTTCACATGGACTCGGCGTCAGAGCAGTAGCGATCGAAGTAGAGGATGCTGAATCAGCTTTCTCCATATCTGTCGCCAACGGCGCGGTGCCTTCTTCTCCACCAAACGTCTTGAATGGTGCTGTTACCATTGCTGAGGTGAAGCTGTACGGAGATGTTGTTTTAAGATATGTTTCATATTACAATGGGACCGTTTCTTTTCTTCCCGGCTTTGAATCTGTTGATGATACTTCTTCCTTCCCTCTTGATTATGGGATCAGGCGGCTGGACCACGCCGTCGGCAACGTGCCGGAGTTAGGTCCTGCTTTGACATATCTTGCCGGCTTCACTGGATTCCATCAATTTGCAGAGTTTACGGCTGACGACGTGGGGACCGCGGAGAGTGGGCTGAACTCAGCAGTCTTGGCCAACAATGATGAAATGGTGCTCCTCCCCATCAATGAACCTGTGCATGGAACAAAGAGAAAGTCGCAGATTCAAACATTTTTAGAGCACAATGAGGGAGCTGGGCTACAGCACCTCGCATTGATGTCAGAAGATATTTTTCGAACGTTGAGGGAGATGCGGAAACGATCTGGTGTAGGCGGCTTTGACTTCATGCCATCCCCTCCGCCAACCTACTACAAGAACCTGAAGAAGAGGGTTGGAGACGTCCTTTCCGAGGAGCAAATTGAAGAATGTGAGGAGCTTGGAATTCTGGTGGACAGAGATGATCAAGGAACACTACTTCAGATCTTCACAAAACCATTGGGCGACAGGCCAACGATATTCATTGAGATCATTCAGCGCGTTGGATGCATGAAGCGTGATGAGGAAGGGAAGGTCTACCAGAGTGGCGGTTGTGGTGGATTTGGAAAAGGAAATTTTTCTGAGCTGTTCAAAAGCATAGAAGAGTATGAGAAAACATTGGAGGCCAAGCAGCTTGTTGGTTGA",Non-resistant,100,0,0,0,16,Non-resistant,100,0,0,0,16,0,0,0,16,0,0,0,16,Scores ([2]; topramezone 25 g ai/ha (1×)): 100; Scores ([2]; topramezone 100 g ai/ha (4×)): 100; Resistance evaluation ([2]; topramezone 25 g ai/ha (1×)): non-resistant (non-resistant plants (scores 68-100)); Resistance evaluation ([2]; topramezone 100 g ai/ha (4×)): non-resistant (non-resistant plants (scores 68-100)); Resistance evaluation ([3]; mesotrione 52.5 g ai/ha): Non-resistant; Scores ([3]; mesotrione 52.5 g ai/ha): 100; Grade 0 (classification and statistics of the grade of pesticide damage; number of plants) ([3]; mesotrione 52.5 g ai/ha): 0; Grade 1 (classification and statistics of the grade of pesticide damage; number of plants) ([3]; mesotrione 52.5 g ai/ha): 0; Grade 2 (classification and statistics of the grade of pesticide damage; number of plants) ([3]; mesotrione 52.5 g ai/ha): 0; Grade 3 (classification and statistics of the grade of pesticide damage; number of plants) ([3]; mesotrione 52.5 g ai/ha): 16; Resistance evaluation ([3]; mesotrione 105 g ai/ha): Non-resistant; Scores ([3]; mesotrione 105 g ai/ha): 100; Grade 0 (classification and statistics of the grade of pesticide damage; number of plants) ([3]; mesotrione 105 g ai/ha): 0; Grade 1 (classification and statistics of the grade of pesticide damage; number of plants) ([3]; mesotrione 105 g ai/ha): 0; Grade 2 (classification and statistics of the grade of pesticide damage; number of plants) ([3]; mesotrione 105 g ai/ha): 0; Grade 3 (classification and statistics of the grade of pesticide damage; number of plants) ([3]; mesotrione 105 g ai/ha): 16
"BnHPPDm-F372A-F383W-02: nucleotide sequence encoding Brassica napus HPPD with F372A+F383W; vector DBN11745 (nucleic acid, BnHPPDm-F372A-F383W-02 Nucleotide Sequence, vector DBN11745) DNA: ATGGGACATGAAAACGCGGCAGTGTGTGAAACTCAACAACATGATGACGCCGCCTCCCCGGGGTTTAAACTTGTCGGGTTCTCAAAATTTGTTAGGAAGAATCCAAAGTCTGACAAGTTCAAGGTGAAACGCTTCCACCACATCGAGTTCTGGTGCGGGGATGCAACAAATGTTTCACGCCGCTTTTCATGGGGACTAGGAATGAGGTTTAGCGCAAAGAGTGATCTCTCCACTGGTAATATGGTTCATGCGAGCTACTTGCTCACATCTGGAGACCTGAGATTCCTCTTCACCGCACCATATTCTCCCTCCCTGTCAGCTGGTGAAGCTCAGCCTTCAGCAACTGCAAGTATCCCTTCGTTTGATCATGCATCGTGCAGGTCTTTCTTCAGTTCACATGGACTCGGCGTCAGAGCAGTAGCGATCGAAGTAGAGGATGCTGAATCAGCTTTCTCCATATCTGTCGCCAACGGCGCGGTGCCTTCTTCTCCACCAAACGTCTTGAATGGTGCTGTTACCATTGCTGAGGTGAAGCTGTACGGAGATGTTGTTTTAAGATATGTTTCATATTACAATGGGACCGTTTCTTTTCTTCCCGGCTTTGAATCTGTTGATGATACTTCTTCCTTCCCTCTTGATTATGGGATCAGGCGGCTGGACCACGCCGTCGGCAACGTGCCGGAGTTAGGTCCTGCTTTGACATATCTTGCCGGCTTCACTGGATTCCATCAATTTGCAGAGTTTACGGCTGACGACGTGGGGACCGCGGAGAGTGGGCTGAACTCAGCAGTCTTGGCCAACAATGATGAAATGGTGCTCCTCCCCATCAATGAACCTGTGCATGGAACAAAGAGAAAGTCGCAGATTCAAACATTTTTAGAGCACAATGAGGGAGCTGGGCTACAGCACCTCGCATTGATGTCAGAAGATATTTTTCGAACGTTGAGGGAGATGCGGAAACGATCTGGTGTAGGCGGCTTTGACTTCATGCCATCCCCTCCGCCAACCTACTACAAGAACCTGAAGAAGAGGGTTGGAGACGTCCTTTCCGAGGAGCAAATTGAAGAATGTGAGGAGCTTGGAATTCTGGTGGACAGAGATGATCAAGGAACACTACTTCAGATCGCCACAAAACCATTGGGCGACAGGCCAACGATATGGATTGAGATCATTCAGCGCGTTGGATGCATGAAGCGTGATGAGGAAGGGAAGGTCTACCAGAGTGGCGGTTGTGGTGGATTTGGAAAAGGAAATTTTTCTGAGCTGTTCAAAAGCATAGAAGAGTATGAGAAAACATTGGAGGCCAAGCAGCTTGTTGGTTGA",Moderately,29,5,8,3,0,Moderately,33,3,10,3,0,6,6,4,0,3,8,5,0,Scores ([2]; topramezone 25 g ai/ha (1×)): 29; Scores ([2]; topramezone 100 g ai/ha (4×)): 38; Resistance evaluation ([2]; topramezone 25 g ai/ha (1×)): moderately; Resistance evaluation ([2]; topramezone 100 g ai/ha (4×)): poorly; Resistance evaluation ([3]; mesotrione 52.5 g ai/ha): Moderately; Scores ([3]; mesotrione 52.5 g ai/ha): 31; Grade 0 (classification and statistics of the grade of pesticide damage; number of plants) ([3]; mesotrione 52.5 g ai/ha): 5; Grade 1 (classification and statistics of the grade of pesticide damage; number of plants) ([3]; mesotrione 52.5 g ai/ha): 8; Grade 2 (classification and statistics of the grade of pesticide damage; number of plants) ([3]; mesotrione 52.5 g ai/ha): 2; Grade 3 (classification and statistics of the grade of pesticide damage; number of plants) ([3]; mesotrione 52.5 g ai/ha): 1; Resistance evaluation ([3]; mesotrione 105 g ai/ha): Poorly resistant; Scores ([3]; mesotrione 105 g ai/ha): 40; Grade 0 (classification and statistics of the grade of pesticide damage; number of plants) ([3]; mesotrione 105 g ai/ha): 0; Grade 1 (classification and statistics of the grade of pesticide damage; number of plants) ([3]; mesotrione 105 g ai/ha): 13; Grade 2 (classification and statistics of the grade of pesticide damage; number of plants) ([3]; mesotrione 105 g ai/ha): 3; Grade 3 (classification and statistics of the grade of pesticide damage; number of plants) ([3]; mesotrione 105 g ai/ha): 0
